From paper PMC9482650, “Quantitative fragmentomics allow affinity mapping of interactomes” (Nature Communications, 2022)

Assays:
Test in all cases: holdup assay
Parameters in all cases: key: below the threshold = too weak to quantify, mostly under pKd 3.1 to 4
Inadl_8, Q8NI35 = molecular target: Inadl_8, Q8NI35
NHERF4_1, Q86UT5-2 = molecular target: NHERF4_1, Q86UT5-2
TJP1_3, Q07157 = molecular target: TJP1_3, Q07157
SNTG1, Q9NSN8 = molecular target: T1, SNTG1, Q9NSN8
T1 sequence (Q9NSN8 52-150, limits assumed, looked up): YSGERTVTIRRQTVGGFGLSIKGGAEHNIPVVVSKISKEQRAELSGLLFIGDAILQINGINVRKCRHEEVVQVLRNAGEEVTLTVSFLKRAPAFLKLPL

DLG3_1, Q92796 = molecular target: T2, DLG3_1, Q92796
T2 sequence (Q92796 125-227, limits assumed, looked up): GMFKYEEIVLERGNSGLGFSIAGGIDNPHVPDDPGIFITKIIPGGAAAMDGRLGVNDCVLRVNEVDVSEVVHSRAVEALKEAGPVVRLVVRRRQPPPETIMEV

LAP2, Q96RT1 = molecular target: LAP2, Q96RT1
FRMPD1, Q5SYB0 = molecular target: T3, FRMPD1, Q5SYB0
T3 sequence (Q5SYB0 52-145, limits assumed, looked up): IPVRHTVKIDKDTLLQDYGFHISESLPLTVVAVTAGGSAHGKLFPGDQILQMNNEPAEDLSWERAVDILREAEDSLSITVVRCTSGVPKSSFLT

HTRA1, Q92743 = molecular target: HTRA1, Q92743
PDZRN3_1, Q9UPQ7 = molecular target: T4, PDZRN3_1, Q9UPQ7
T4 sequence (Q9UPQ7 244-349, limits assumed, looked up): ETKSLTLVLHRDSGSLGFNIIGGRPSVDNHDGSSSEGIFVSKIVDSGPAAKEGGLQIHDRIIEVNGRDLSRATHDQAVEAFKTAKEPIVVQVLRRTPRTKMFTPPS

SCRIB_3, Q14160 = molecular target: SCRIB_3, Q14160
LIN7B, Q9HAP6 = molecular target: T5, LIN7B, Q9HAP6
T5 sequence (Q9HAP6 88-185, limits assumed, looked up): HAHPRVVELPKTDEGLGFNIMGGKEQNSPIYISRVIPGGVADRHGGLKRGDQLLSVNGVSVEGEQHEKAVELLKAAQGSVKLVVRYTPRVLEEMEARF

IL16_4, Q14005 = molecular target: IL16_4, Q14005
GORASP2, Q9H8Y8 = molecular target: GORASP2, Q9H8Y8
PCLO, Q9Y6V0 = molecular target: T6, PCLO, Q9Y6V0
T6 sequence (Q9Y6V0 4491-4600, limits assumed, looked up): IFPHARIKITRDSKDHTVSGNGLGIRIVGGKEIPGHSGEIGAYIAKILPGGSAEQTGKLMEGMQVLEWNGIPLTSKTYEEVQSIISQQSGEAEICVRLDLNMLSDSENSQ

MPP6, Q9NZW5 = molecular target: T7, MPP6, Q9NZW5
T7 sequence (Q9NZW5 125-219, limits assumed, looked up): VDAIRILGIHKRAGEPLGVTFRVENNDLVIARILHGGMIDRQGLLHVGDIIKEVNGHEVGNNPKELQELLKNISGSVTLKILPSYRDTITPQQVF

DLG3_2, Q92796 = molecular target: T8, DLG3_2, Q92796
T8 sequence (Q92796 221-321, limits assumed, looked up): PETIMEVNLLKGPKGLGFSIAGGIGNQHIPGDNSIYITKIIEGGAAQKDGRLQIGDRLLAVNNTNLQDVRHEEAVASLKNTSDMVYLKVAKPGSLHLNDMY

GRIP1_2, Q9Y3R0 = molecular target: T9, GRIP1_2, Q9Y3R0
T9 sequence (Q9Y3R0 145-248, limits assumed, looked up): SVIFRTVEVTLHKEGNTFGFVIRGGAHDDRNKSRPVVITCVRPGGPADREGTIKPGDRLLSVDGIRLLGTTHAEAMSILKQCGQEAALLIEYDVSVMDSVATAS

GRID2IP_1, A4D2P6 = molecular target: GRID2IP_1, A4D2P6
HTRA2, O43464 = molecular target: HTRA2, O43464
FRMPD2_2, Q68DX3 = molecular target: FRMPD2_2, Q68DX3
DVL3, Q92997 = molecular target: T10, DVL3, Q92997
T10 sequence (Q92997 244-331, limits assumed, looked up): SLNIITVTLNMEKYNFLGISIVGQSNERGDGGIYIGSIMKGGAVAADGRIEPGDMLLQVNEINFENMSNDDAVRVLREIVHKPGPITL

LIN7A, O14910 = molecular target: T11, LIN7A, O14910
T11 sequence (O14910 103-200, limits assumed, looked up): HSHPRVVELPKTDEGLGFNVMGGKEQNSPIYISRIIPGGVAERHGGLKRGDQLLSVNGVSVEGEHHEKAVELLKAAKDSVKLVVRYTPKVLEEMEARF

APBA2_1, Q99767 = molecular target: T12, APBA2_1, Q99767
T12 sequence (Q99767 563-664, limits assumed, looked up): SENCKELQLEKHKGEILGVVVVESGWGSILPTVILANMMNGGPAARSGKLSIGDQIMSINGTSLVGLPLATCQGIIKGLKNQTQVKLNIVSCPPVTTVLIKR

LNX1_3, Q8TBB1 = molecular target: LNX1_3, Q8TBB1
PDLIM1, O00151 = molecular target: PDLIM1, O00151
ARHGEF12, Q9NZN5-2 = molecular target: ARHGEF12, Q9NZN5-2
[1] = plain residues with an end cap or a label only (N-terminal biotin on a linker: ahx)
[2] = plain residues with an end cap or a label only (N-terminal biotin on a linker: ado-ado)

HTRA1, Q92743, sequence (Q92743 360-477): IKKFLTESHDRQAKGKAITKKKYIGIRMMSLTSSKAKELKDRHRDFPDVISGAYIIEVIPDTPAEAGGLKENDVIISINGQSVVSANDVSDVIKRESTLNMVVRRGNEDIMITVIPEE
HTRA2, O43464, sequence (O43464 355-458): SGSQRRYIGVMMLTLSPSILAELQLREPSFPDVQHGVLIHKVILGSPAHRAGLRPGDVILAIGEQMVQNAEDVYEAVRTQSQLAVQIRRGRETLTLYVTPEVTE
NHERF4_1, Q86UT5-2, sequence (Q86UT5 other isoform, or with tags, fused parts or gaps): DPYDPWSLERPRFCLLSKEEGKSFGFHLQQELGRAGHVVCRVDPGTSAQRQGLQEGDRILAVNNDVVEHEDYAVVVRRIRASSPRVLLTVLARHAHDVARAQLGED
Inadl_8, Q8NI35, sequence (Q8NI35 1425-1530): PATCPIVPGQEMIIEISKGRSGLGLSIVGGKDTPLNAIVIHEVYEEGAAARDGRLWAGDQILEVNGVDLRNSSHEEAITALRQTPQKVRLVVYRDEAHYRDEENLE
SCRIB_3, Q14160, sequence (Q14160 999-1103): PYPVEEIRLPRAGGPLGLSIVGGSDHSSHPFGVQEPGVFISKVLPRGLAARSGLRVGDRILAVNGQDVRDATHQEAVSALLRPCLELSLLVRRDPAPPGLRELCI
LAP2, Q96RT1, sequence (Q96RT1 other isoform, or with tags, fused parts or gaps): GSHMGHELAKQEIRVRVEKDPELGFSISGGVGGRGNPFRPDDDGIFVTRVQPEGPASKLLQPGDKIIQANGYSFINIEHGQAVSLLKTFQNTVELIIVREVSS
ARHGEF12, Q9NZN5-2, sequence (Q9NZN5 other isoform, or with tags, fused parts or gaps): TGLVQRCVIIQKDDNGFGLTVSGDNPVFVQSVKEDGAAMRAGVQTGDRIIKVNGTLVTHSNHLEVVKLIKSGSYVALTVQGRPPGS
PDLIM1, O00151, sequence (O00151 1-87): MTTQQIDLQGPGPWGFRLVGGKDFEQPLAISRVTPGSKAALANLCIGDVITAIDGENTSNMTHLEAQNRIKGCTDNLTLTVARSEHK
LNX1_3, Q8TBB1, sequence (Q8TBB1 500-596): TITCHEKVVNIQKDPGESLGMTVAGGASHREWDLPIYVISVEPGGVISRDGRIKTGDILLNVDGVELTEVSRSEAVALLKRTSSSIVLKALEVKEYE
GRID2IP_1, A4D2P6, sequence (A4D2P6 1-87): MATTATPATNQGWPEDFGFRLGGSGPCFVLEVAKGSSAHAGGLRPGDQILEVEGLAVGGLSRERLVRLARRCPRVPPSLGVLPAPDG
TJP1_3, Q07157, sequence (Q07157 416-512): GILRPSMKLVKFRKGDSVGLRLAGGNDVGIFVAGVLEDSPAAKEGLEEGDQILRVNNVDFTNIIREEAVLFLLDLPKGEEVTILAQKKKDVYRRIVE
FRMPD2_2, Q68DX3, sequence (Q68DX3 944-1038): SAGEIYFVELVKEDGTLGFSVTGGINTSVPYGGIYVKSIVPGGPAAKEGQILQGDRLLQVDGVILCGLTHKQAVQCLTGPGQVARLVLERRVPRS
IL16_4, Q14005, sequence (Q14005 1229-1329): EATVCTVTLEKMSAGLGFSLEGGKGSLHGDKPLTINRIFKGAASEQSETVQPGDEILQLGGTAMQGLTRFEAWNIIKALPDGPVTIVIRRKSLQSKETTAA

Binder: QDEKVKESYV [ABCA1, O95477]
- pKd (Inadl_8, Q8NI35; [1]): 4.68
- pKd (NHERF4_1, Q86UT5-2; [1]): 3.48
- pKd (TJP1_3, Q07157; [1]): below the threshold
- pKd (SNTG1, Q9NSN8; [1]): 5.24
- pKd (DLG3_1, Q92796; [1]): 4.29
- pKd (LAP2, Q96RT1; [1]): 4.41
- pKd (FRMPD1, Q5SYB0; [1]): below the threshold
- pKd (HTRA1, Q92743; [1]): 4.28
- pKd (PDZRN3_1, Q9UPQ7; [1]): 4.31
- pKd (SCRIB_3, Q14160; [1]): 4.45
- pKd (LIN7B, Q9HAP6; [1]): 4.15
- pKd (IL16_4, Q14005; [1]): below the threshold
- pKd (GORASP2, Q9H8Y8; [1]): 3.75
- pKd (PCLO, Q9Y6V0; [1]): below the threshold
- pKd (MPP6, Q9NZW5; [1]): below the threshold
- pKd (DLG3_2, Q92796; [1]): 4.92
- pKd (GRIP1_2, Q9Y3R0; [1]): below the threshold
- pKd (GRID2IP_1, A4D2P6; [1]): below the threshold
- pKd (HTRA2, O43464; [1]): below the threshold
- pKd (FRMPD2_2, Q68DX3; [1]): 5.31
- pKd (DVL3, Q92997; [1]): 3.7
- pKd (LIN7A, O14910; [1]): 3.89
- pKd (APBA2_1, Q99767; [1]): below the threshold
- pKd (LNX1_3, Q8TBB1; [1]): below the threshold
- pKd (PDLIM1, O00151; [1]): below the threshold
- pKd (ARHGEF12, Q9NZN5-2; [1]): 4.27

Binder: DPAESMESLV [PTPRG, P23470]
- pKd (Inadl_8, Q8NI35; [2]): below the threshold
- pKd (NHERF4_1, Q86UT5-2; [2]): below the threshold
- pKd (TJP1_3, Q07157; [2]): below the threshold
- pKd (SNTG1, Q9NSN8; [2]): 4.66
- pKd (DLG3_1, Q92796; [2]): 4.23
- pKd (LAP2, Q96RT1; [2]): 3.96
- pKd (FRMPD1, Q5SYB0; [2]): below the threshold
- pKd (HTRA1, Q92743; [2]): 4.41
- pKd (PDZRN3_1, Q9UPQ7; [2]): 3.96
- pKd (SCRIB_3, Q14160; [2]): 3.92
- pKd (LIN7B, Q9HAP6; [2]): below the threshold
- pKd (IL16_4, Q14005; [2]): below the threshold
- pKd (GORASP2, Q9H8Y8; [2]): below the threshold
- pKd (PCLO, Q9Y6V0; [2]): below the threshold
- pKd (MPP6, Q9NZW5; [2]): below the threshold
- pKd (DLG3_2, Q92796; [2]): 4.72
- pKd (GRIP1_2, Q9Y3R0; [2]): below the threshold
- pKd (GRID2IP_1, A4D2P6; [2]): below the threshold
- pKd (HTRA2, O43464; [2]): below the threshold
- pKd (FRMPD2_2, Q68DX3; [2]): 4.54
- pKd (DVL3, Q92997; [2]): below the threshold
- pKd (LIN7A, O14910; [2]): 3.7
- pKd (APBA2_1, Q99767; [2]): below the threshold
- pKd (LNX1_3, Q8TBB1; [2]): below the threshold
- pKd (PDLIM1, O00151; [2]): below the threshold
- pKd (ARHGEF12, Q9NZN5-2; [2]): below the threshold

Binder: EIPAQSPTCV [FZD10, Q9ULW2]
- pKd (Inadl_8, Q8NI35; [2]): 4.35
- pKd (NHERF4_1, Q86UT5-2; [2]): 3.91
- pKd (TJP1_3, Q07157; [2]): 3.65
- pKd (SNTG1, Q9NSN8; [2]): 3.83
- pKd (DLG3_1, Q92796; [2]): 3.72
- pKd (LAP2, Q96RT1; [2]): 3.73
- pKd (FRMPD1, Q5SYB0; [2]): 3.56
- pKd (HTRA1, Q92743; [2]): 4.57
- pKd (PDZRN3_1, Q9UPQ7; [2]): below the threshold
- pKd (SCRIB_3, Q14160; [2]): 3.99
- pKd (LIN7B, Q9HAP6; [2]): below the threshold
- pKd (IL16_4, Q14005; [2]): below the threshold
- pKd (GORASP2, Q9H8Y8; [2]): 3.98
- pKd (PCLO, Q9Y6V0; [2]): 3.47
- pKd (MPP6, Q9NZW5; [2]): below the threshold
- pKd (DLG3_2, Q92796; [2]): 3.88
- pKd (GRIP1_2, Q9Y3R0; [2]): 3.67
- pKd (GRID2IP_1, A4D2P6; [2]): 3.72
- pKd (HTRA2, O43464; [2]): 3.76
- pKd (FRMPD2_2, Q68DX3; [2]): 3.74
- pKd (DVL3, Q92997; [2]): 3.6
- pKd (LIN7A, O14910; [2]): 3.48
- pKd (APBA2_1, Q99767; [2]): below the threshold
- pKd (LNX1_3, Q8TBB1; [2]): below the threshold
- pKd (PDLIM1, O00151; [2]): 3.68
- pKd (ARHGEF12, Q9NZN5-2; [2]): 3.91
